Blank lines part the entries; values can stand above or below the substance they belong to.
Key:
[1] = target: SmBiT(ΔC3) (NanoBiT small fragment truncated by 3 amino acids at the C-terminus); test: cell-based or functional assay
[2] = target: ERK substrate (Cdc25C substrate sequence with second phosphorylation site, V-3S); test: cell-based or functional assay

- response (luminescence induction by ERK inhibition) of the reporter with truncated SmBiT [1]: 300%
Substance: LgBiT (NanoBiT large fragment of NanoLuc), ΔN2 (enzyme)

- induction of luminescence (ΔC3 V-3S) [2]: 8.8 fold
Substance: WW phospho-binding domain (proline-directed WW phospho-binding domain from Pin1) (from UniProt Q13526 1-54)

- induction of luminescence by Vx-11e (bKiMBI) [2]: > 10 fold
Substance: WW phospho-binding domain with F25A mutation (from UniProt Q13526 1-54)

— patent US20260077065A1, “Compositions and Methods for Assessing Kinase Activity” (The Board of Trustees of the Leland Stanford Junior …, priority 2022, published 2026)
